Test results from article PMC4210639 (Neuron, 2014).

Biological target: T1, FLRT3^LRR (leucine-rich repeat domain of mouse FLRT3) (mouse, UniProt Q8BGT1 29-359)
T1 sequence: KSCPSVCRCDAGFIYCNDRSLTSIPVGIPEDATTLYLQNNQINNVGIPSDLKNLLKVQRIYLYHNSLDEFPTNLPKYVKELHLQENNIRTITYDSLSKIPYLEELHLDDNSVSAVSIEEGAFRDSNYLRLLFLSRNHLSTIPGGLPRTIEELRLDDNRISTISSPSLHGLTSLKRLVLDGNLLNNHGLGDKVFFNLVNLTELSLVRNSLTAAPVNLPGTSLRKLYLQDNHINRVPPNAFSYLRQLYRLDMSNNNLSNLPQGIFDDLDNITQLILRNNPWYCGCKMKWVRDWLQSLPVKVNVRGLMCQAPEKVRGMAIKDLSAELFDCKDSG
Assay: SPR

B1: Unc5A^ecto (human Unc5A ectodomain) (domain or fragment)
chain: not shown
- binding result: binds
